Experimental findings from PMC8269962 (Nature, 2021) are described below.

The experiment concerns the target H3-I53_dn5B trimer (H3 HA ectodomain fused to the N terminus of I53_dn5B) (influenza A virus (H3N2)). The experiment in a line: SEC. Background: Size exclusion chromatography separates by hydrodynamic size, large species first.

“H3-I53_dn5B trimer (H3 HA ectodomain fused to the N terminus of I53_dn5B)”: the stoichiometry N – broadly, a count of units in the complex or per binding partner – was found to be 3.
